Target: UbcH7-Ub (Homo sapiens, UniProt P68036)
Experiment: ITC

Chain of UbcH7-Ub (P68036 whole entry): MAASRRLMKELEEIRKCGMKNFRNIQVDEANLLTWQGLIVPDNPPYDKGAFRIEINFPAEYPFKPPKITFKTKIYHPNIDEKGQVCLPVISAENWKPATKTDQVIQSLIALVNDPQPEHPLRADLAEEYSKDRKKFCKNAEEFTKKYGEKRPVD

Kd: 5.3 µM
B1: HOIL-1 (protein)
chain: MDEKTKKAEEMALSLTRAVAGGDEQVAMKCAIWLAEQRVPLSVQLKPEVSPTQDIRLWVSVEDAQMHTVTIWLTVRPDMTVASLKDMVFLDYGFPPVLQQWVIGQRLARDQETLHSHGVRQNGDSAYLYLLSARNTSLNPQELQRERQLRMLEDLGFKDLTLQPRGPLEPGPPKPGVPQEPGRGQPDAVPEPPPVGWQCPGCTFINKPTRPGCEMCCRARPEAYQVPASYQPDEEERARLAGEEEALRQYQQRKQQQQEGNYLQHVQLDQRSLVLNTEPAECPVCYSVLAPGEAVVLRECLHTFCRECLQGTIRNSQEAEVSCPFIDNTYSCSGKLLEREIKALLTPEDYQRFLDLGISIAENRSAFSYHCKTPDCKGWCFFEDDVNEFTCPVCFHVNCLLCKAIHEQMNCKEYQEDLALRAQNDVAARQTTEMLKVMLQQGEAMRCPQCQIVVQKKDGCDWIRCTVCHTEICWVTKGPRWGPGGPGDTSGGCRCRVNGIPCHPSCQNCH
